Test results from the supplement of paper PMC12455559.

Assay: purified protein yield per well (BCA); higher = higher soluble expression
Summary of the method: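 Values under 25 ug (0.1 mg/mL) are below the detection threshold. Purified protein yield per well was quantified with the Pierce Rapid Gold BCA kit after candidate enzymes, expressed in E. coli C41(DE3), were captured on Ni-charged magnetic beads and released by SUMO protease on an OT-2 robot. Cultures were 2 mL autoinduction with 100 µg/mL kanamycin, run 2 h at 37 °C and then 40 h at 18 °C.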

Row | Sequence | purified protein yield per well [µg]
1 | ADNPYQRGPDPTRSSVAASRGTFATAQVGVPAGNGFGGGVIYYPTDTSQGTFGAVAIVPGYTAKWAAEGAWTGPWLASFGLVVIGIDTNSANDFDVARDRQLPAALDYLAQRGSVRGRVDTTRLAAMGHSMGGGGALNAALRRPSSKAAVGSAPYKPSGNLASDRVATLLLAGQNDTTVTPSYVDGLHRSIPATTEKGYVELSGAGHAFPTRANSTQMRVVTPWLKVFLDDDARYSQFLCPLMDSAGINRYGSTCPLLPPDGSTGSSSSLVGSGFGKCLDAGAGQDRSKVTITSCTGGGGQKWVFNTNGTITDPQSGRCLDVDARGTADNTAVATWTCHGESNQVWTRRA [ESM189] | < 25
2 | YYSGATLYYPIDAPEPFASIVIVPGWGMPESTIQDWGPFFASWGIVAMTIGTNNPNYDWPEERAEALLDAIETIKQEDGRINSPVYGKIDLNSFAVSGWSMGGGGAQLAAVMEPTLKAVIALCPWLDNWVLGPDDLNHSVPILIFSGENDVNAPPYLHADIHYNYTPAATDKLLFEVENGDHYVANGPDGGSGYIGDRAHEWLKKYLLDDFSNCELLLEVPPTASQYLTNIECESVIQGDLNGDGVIDILDIIILVNMILNDEYNSIADLNEDGELNILDVVTIVNLVLFGDDSVCIDIDGNIYETVQIGDQLWMAENLKVTHYNDGSEITHIINSDDWGNYNEGQYGVYDNDPSNADIYGNLYNWYTVDDDRGVCPEGFHAPSDEEFMELEIFLGMSESEANSTGNRGTNEGSKLADNADLWISGNLENNAEFGMSGFNGLPAGHRLYDNGYYSSMGNFVSYWSSTEHSSNYAWNRELEYHASVVYRFYATKQFGFSIRCLGD [TEP063] | < 25
3 | LKADGPYAVSSQTVKGNGFGAGTVYSPNTPGKYAVVAVCPGFVSAESSMTAISKRLATHGFVVVTIATNTLFDFPSSRATQLLAALKTVTALTTGPVAGKMDTSRQGVSGWSMGGGGTLEAAGATPGLVSAVAYAPWDTSTTKMKVNKVPVAIIGGSADTVASVSAHSQKFYDAIPATTPKMLPVINGADHFFPTKASEPASYHNI [ESM072] | < 25
4 | SQGTFGAAVVSPGFLSPQVAWAGPRIASHGFVVLTIDTNTIFDSPTSRSQQLQAALSYLVSPASGVANRIDPSRLAAMGHSMGGGGTLELAARLPTLQAAVPLQPWDIAQSFSGIRVPTMIIGAQADFIAPVASHSEPFYQQVPATTEKAYLEVAGADHLIGLLGNPTQARYSVAWLKRYVDDDTRYDQFICPPPSGPTISEYRNTCPP [TEP153] | < 25
5 | VENGPAPTLAALKADGPYAITSQAVPGNGFGAGTVYVPTAAGKYALVAICPGFVSAQSTMTDMAKRLATHGFVVVAISTNTLLDFPPSRASQLLAALKATASLTSGPVVGKIDTSRQAVSGWSMGGGGTLEAAGSTPGLMAAVAFAPWDTSTTKMKVDKVPAAIIGGSSDVIAPVSSHSQPFYNAIPSTTPKLLAVISGASHFFPTTASEPASYTNISWMKRFADGDTRYSQFLNGNDAALSSFTSNGPF [ESM092] | < 25
6 | QSAGGNPYAIGPDPTASSLEASSGPFGYTSTTIPSSEATGYGGGTVYYPANVNIATGGIVVVPGYGATQSNISWWGPRLASNGFVVYTIDTTNIYDLPAQRAKEIMAAVAQLKTFSTTTGNEIYGKVDTNRIGIMGGSFGGGGTLIAETTHPQLKAAIPFVPKIASGNPDLSKITIPTLIIGCQEDQVAPPKSYAIPYYSAIPEQNHKAYLEISNGQHLCASTQGSDQNKPIIGKYGVAWMKRFIDNDSRYNPYLCGSPHQTDVSNSTVISGYKDTCPY [DP020] | < 25
7 | GASAPAANPYERGPAPTEQALLAPLGSFTYSTVVVPRSQVTGFGGGTIYYPDDTSQGTYGGVVAVPGFVSPEGAVAWLGPHMASRGFVVFTIATTSPFDQPTARGKQLLAALDHLTQRTPDAVRKRLDPARLAVTGHSMGGGGALYASGARPGIKAAIPLAPYNQDKTWNEVATPTLVVGGSADQIASVDKHARPFYNSLTGARDRGLLNVAAADHGDFTQENSITGRYAAAWLKRFVDEDTRYDQYLCPATGGPGVTEYSASCPLS [TEP151] | < 25
8 | MTVPPGNGFNGGKIYYPTDTSLGTWAAVAAVPGYTARWDAEGAWMGPWLASFGFVVIGIDTNSPTDYDTARGTQLLAALDYLTQKSPVRDRVDPNRLGVLGHSMGGGGAISAAERRPSLKAALPLAPFSPSQNLSSLRVPTMIMGARDDGTVTPSYLNGLYGSMPTATQSAYIELTSGGHGFPTWGNSNVTRRTIPWLKIFLDNDTRYTQFLCPSLADSSGISRSQTKCPYVPPGGTTTPPSGGQIVGAGSGRCLDVPNASQTNGAQVQLWDCSGNVNQKWARTDAGELRVYGSKCLDAEGSGTSPGTRVIVWDCHGGQNQRWNVNTNGTITSVGSGLCLDTNGGGTGNGAQTVLGNCNGAPTQRWTVR [ESM105] | < 25
9 | MCHISAPVPPRAPGCPQFAHWLEVRAVLGSNGAFPTSGRTGADPSGARGTGGRWRRGVAALSTAAVLGALTVVGAVQSASGADNPYQRGPDPTASYVSGSRGSFATAQVSVPAGNGFGGGVIYHPTDTTQGTFGAIAVVPGYTATWAAEGAWMGHWLASFGFVVIGIDTNGREDWDTARGTQLLAALDYLTQRSSVRDRVDASRTAVMGHSMGGGGAMYAALQRPSLKTTVGLAPFSPSQNLTNLRVPAMLLSGQNDTTTTPSSIVNLYNGIPAATEKAYLELSGVGHSFPTSSNPTMMRNVIPWLKIFIDSDTRYTQFLCPLSNSNGIRSYQNTCPLVPSSVPTTSSTTTSTSTTTTTTTTTTTTTTTSVPVGACSASFRTTNTWPGGYQGEVTVTAGSSAVNGWTVQWTLDSGQSISQVWNGTLSVSGSAVSVRNVSYNGSLPPNASATFGFIGGGSPSTSPFTCTSP [ESM077] | < 25
10 | APVAVAPAAVPVHGVDPTDANLRQPVGDLAFSQVTIADSQTPGFGAATIYYPDDTTHGTYGGVAVVPGYTSPQSAVAWLGPRLASRGFVVITIATNSIYDQPTTRGRELLSALDYLTTSSPAAVRQRLDPQRLAVMGHSMGGGGALYAVSQRTTIKAAVPLAPYNQDKTWQTVKTPTMLMAGSADNVAGIGTFSRPFYRSMTGARERALVNVQGADHGTFVRENATIGKYATAWLKRFVDEDTRYDQFLCPAPTGDGLTEYTASCPNA [DP012] | < 25
11 | RSGPYQVAYYTQLPPVPEFGAATLYFPANKGQDFSGVVIAPGYIEQQENISWWGNHLASHGFAVLTIDTNSLQDNPQLRAEALMAGVELLRGENTRMGGTLRGKFHEQQMAVMGHSMGGGGALLAANNSGGELKAAIPLTPWLPDGDFGAVAVPTLLISGETDRIAAVADHARLHYQSLPEELTKMYLEIKGGNHFIANSIVENEGLNPNIDVRDLVGGMA [TEP023] | < 25
12 | EENPYARGPAPTNASIEADRGSFQTATEKVPAGQGFGGGTIHYPTDTGQGTFGAIAIAPGFFETESAIAWYGPRLASQGFVVITFSTKSTWDTPDLRSDQLLAALRYVTDKSQAKDRVDPGRLAVMGHSMGGGGSLIAAQKAPTLKAAIPLTGWNPNTVFSDLKVPTFVVSAQNDFIAPDGSHSRPFYQSLPESLDKAYLLLAGAGHMAPTKPNVTIAKYSLSWLKRFVDEDTRYDQFLCPLPANDPKIAVYRGTCPLG [TEP064] | < 25
13 | QNCDSLLLESITNPGPYSVNDIDESAGIRNGSDYSGSTIYYPVNSNGNYASIVLVPGYMNTESTIQNWGPFLASHGIVTMTIGTNSLTDNHIQRKDALLDAIISLKNENNRLASPLYAKLATTTIAVGGFSKGGGGAQLAAVDAPDLKAVVALYPWLDNPSQSDLNHNIPVIIVSGELDLIAPPSSHADVHYDYTPNTTNKLKYEVEFASHDALSGPTGGNGEVGKRVFSWLQTYLLDDSCYCPLMLVPATTSSEYITNIVCDNVTQVSEFSYANKKLIKVIDLLGREAKENKNTPLFYIYDDGTVEKKIIIE [TEP087] | < 25
14 | GPTDFQRGPAPTEQSITAERGPFATAQTTVDGPNFNKGTAYYPTDTSQGTFGAVAISPGFASPEAVVSWYGPRLASQGFVVLTLETNSGSDLPDSRATQLVNALDFLVQSSSVKDRIDPNRLAVMGHSMGGGGSLKASELRPSLKAAIPLMPWNNDKTWQGDRVPTMIMGAQNDAIASPASHAKPFYDSLTSAPEKAYLELRSEGHLVAVSPNVTIAKYSIAWLKRFVDEDVRYEQFLCPAPTANLQISEYRNTCPTG [DP025] | < 25
15 | MKSSGSAFRDPSGTVPTGRPAGRSWRYALALVAATTTLVALTVAGGTQQATGADNPYQRGPDPTRASVSANRGTFATAQVSVPAGNGFGGGVIYYPTDTSQGRFGAIAVVPGYTATWAAEGAWMGHWLASFGFVVIGIDTNSRNDWDNARGTQLLAALDYLTQRSSVRDRVDASRTSVMGHSMGGGGAANASLQRPTLKTAIGLAPASFSQNLTTTKVPTMLLAGQYDGTVTPSSVLNLYNGIPAGVEKAYLELTGAGHGFPTSNNPTMMRTIIPWFKIFVDSDTRYTQFLCPLADTNGIRTYQSTCPLVPSTPPTSTSTTTTTTGVPTGSTYVGQQSGRCLDVTGQSQTNGAKAQLWDCNGQSNQKWTLTSAAELRVYGGKCLDLPSNSAAGTQAQIWDCNGQSNQKWTHGTDGSIRHTQTGLCLDANGQGTANGTQVNSWNCNGQTNQKWTRR [TEP008] | < 25
16 | AGNPHQRGPDPTPQSIVAEKGPFEVATAPAPAGNGFGGGTIYYPTDTSQGTFAGIAISPGFFGPQFSIDWYGPRLASQGFVVIAITTNALWDFPSQRADQLLAALKYLKQDSPAKDRLDGGRLGVMGHSMGGGGTMEAVLKDHSLKAAIPLTGWGITADYSGVQTPTMIIGAQFDVVAPDESYSIPFYKSLRPDLDKQFLQLAGGTHFSPNLPNTTIAKYSISWLKRFLDDDTRYQQFLCPVQPDPELSAHEATCHS [DP001] | < 25
17 | CSEEPHKAGGPWAGPYEVVTQQVSADDADGGFGDGTVRYPDDGSRDYGVIAASPGLGADESTVAPYGELLASHGFVVITIDTKTPEDSPAQRGRQLLRALDYATERSDAADRADPRRLGVLGHSMGGGGALYAAARNPHIRAAVPLTPYATRRDWHRVEAPTLVVGGSDDEVAPVSEYADAFYEGLSGAREKAYLELKGDHFVATPPDGLVSRQVVAWFGHFLAGAPGSPCPLPSGDGVTESRDTCPFGTRGR [TEP179] | 25.7
18 | AQSPYERGPAPTETSVRASTGPFQYAQVSVPGAGFGSGTIYYPTDTGQGTFGGVAVSPGFLSPEILIAWLGPKLASNGFVVITISTNNPGDQPDSRGEQLLAALNYLATQSPAAVRQRLDPGRLSVIGHSMGGGGALRAADSRPDLQAAIPLGGWHTNKNWSNIRVPTMVIGAQNDFIAPNDQHSQRFYTSITQAPEKAYLRPVGTGHVNVGTGTPVVGKFVLSWLKRFVDDDTRYDQFLCPTPSGSDLVEYHSTCPHT [DP014] | < 25
19 | AAPVHHAVTRPVAAHHPVTRPVAGHAPPPSTVDQIVVPATADARFGGGTIFAPHGAGQKVLGSVIVTPGFHGRKSDMAVYGTELAAEGFVVFTIDTRERADLPAQRATEMLAAADYLTGRSAVKGEVSPDRVALLGYSMGGGGTLEAAQERPSIKAALTLMPYDYPPAGDPKAVHPAYPELTVPTLIITGQKDATAIPAKFGKPAYDSIPAGTPKQYLQLTGLGHAAGMGKPTATIRAAITAFLERYLDGDTAYAKDICPAPEVGGPISASTSSCPAG [ESM183] | < 25
